Results taken from publication PMC7749410.

Assays:
[1] = target: cc-del0 (cc-C99 18-99) (Saccharomyces cerevisiae | human); experiment: native gel or EMSA
[2] = target: cc-del0 G29C (Saccharomyces cerevisiae | human); experiment: cross-linking
[3] = target: cc-del1 (cc-C99 19-99) (Saccharomyces cerevisiae | human); experiment: native gel or EMSA
[4] = target: cc-del2 (cc-C99 20-99) (Saccharomyces cerevisiae | human); experiment: native gel or EMSA
[5] = target: cc-del2 G29C (Saccharomyces cerevisiae | human); experiment: cross-linking
[6] = target: cc-del3 (cc-C99 21-99) (Saccharomyces cerevisiae | human); experiment: native gel or EMSA
[7] = target: cc-del3 G29C (Saccharomyces cerevisiae | human); experiment: cross-linking
[8] = target: cc-del4 (cc-C99 22-99) (Saccharomyces cerevisiae | human); experiment: native gel or EMSA
[9] = target: cc-del4 G37C (Saccharomyces cerevisiae | human); experiment: cross-linking
[10] = target: cc-del5 (cc-C99 23-99) (Saccharomyces cerevisiae | human); experiment: native gel or EMSA
[11] = target: cc-del6 (cc-C99 24-99) (Saccharomyces cerevisiae | human); experiment: native gel or EMSA
[12] = target: cc-del6 G29C (Saccharomyces cerevisiae | human); experiment: cross-linking
[13] = target: cc-del7 (cc-C99 25-99) (Saccharomyces cerevisiae | human); experiment: native gel or EMSA
[14] = target: cc-del7 G29C (Saccharomyces cerevisiae | human); experiment: cross-linking
[15] = target: cc-del7 G37C (Saccharomyces cerevisiae | human); experiment: cross-linking
[16] = target: cc-del8 (cc-C99 26-99) (Saccharomyces cerevisiae | human); experiment: native gel or EMSA
[17] = target: cc-del9 (cc-C99 27-99) (Saccharomyces cerevisiae | human); experiment: native gel or EMSA
[18] = target: cc-del9 G29C (Saccharomyces cerevisiae | human); experiment: cross-linking

cc-del0 (cc-C99 18-99) showed a stoichiometry N [1] of 2.

cc-del0 G29C showed a stoichiometry N [2] of 2.

Substance cc-del1 (cc-C99 19-99) has a stoichiometry N [3] of 2.

For cc-del2 (cc-C99 20-99), the stoichiometry N [4] was 2.

With cc-del2 G29C the stoichiometry N [5] was 2.

Substance cc-del3 (cc-C99 21-99) has a stoichiometry N [6] of 2.

cc-del3 G29C gave a stoichiometry N [7] of 2.

Work on cc-del4 (cc-C99 22-99) yielded a stoichiometry N [8] of 2.

cc-del4 G37C gave a stoichiometry N [9] of 2.

cc-del5 (cc-C99 23-99) showed a stoichiometry N [10] of 2.

Work on cc-del6 (cc-C99 24-99) yielded a stoichiometry N [11] of 2.

Substance cc-del6 G29C has a stoichiometry N [12] of 2.

Substance cc-del7 (cc-C99 25-99) has a stoichiometry N [13] of 2.

In the case of cc-del7 G29C, the stoichiometry N [14] is reported as 2.

For cc-del7 G37C, the stoichiometry N [15] was 2.

Substance cc-del8 (cc-C99 26-99) has a stoichiometry N [16] of 2.

With cc-del9 (cc-C99 27-99) the stoichiometry N [17] was 2.

In the case of cc-del9 G29C, the stoichiometry N [18] is reported as 2.
